B1: MLH1 (parent)
chain: YNIATRRKALKNPSEEYGKILEVV
B2: PBXIP1 (parent)
chain: EKQKQPRWREGTKDSHDPLPSWAE

Variants of: B1
Experiment: protein stability index of a GFP-peptide fusion (GPS, HEK-293T) (PSI 1-6); higher = more stable
Conditions: c terminus: a fixed tail appended
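Note: lentivirally expressed fusions sorted by FACS into six bins by GFP to DsRed ratio, PSI derived from sequencing read proportions per bin multiplied by bin number.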

Row | Variant | protein stability index
1 | I3P | 3.14
2 | I3K | 2.98
3 | I3M | 3.08
4 | I3D | 3.19
5 | I3C | 2.69
6 | I3R | 2.71
7 | I3F | 2.85
8 | I3N | 3.29
9 | I3S | 3
10 | I3A | 3.11
11 | I3E | 2.74
12 | I3H | 2.69
13 | I3Q | 3.41
14 | I3G | 2.97
15 | N2C | 2.18
16 | N2L | 1.9
17 | N2T | 2.45
18 | N2G | 2.7
19 | N2E | 3.12
20 | N2H | 2.07
21 | N2D | 3.14
22 | N2R | 2.5

Row | Variant | protein stability index
23 | N2Q | 2.51
24 | N2V | 1.87
25 | N2F | 1.71
26 | N2Y | 2.43
27 | N2M | 1.85
28 | A4Y | 2.12
29 | A4E | 3
30 | A4R | 2.97
31 | A4W | 1.83
32 | A4V | 2.49
33 | A4Q | 2.57
34 | A4N | 3.27
35 | A4D | 3.15
36 | A4I | 2.54
37 | A4H | 2.89
38 | A4C | 3.31
39 | Y1S | 3.29
40 | Y1E | 3.55
41 | Y1I | 2.48
42 | Y1Q | 3.6
43 | Y1V | 2.76
44 | Y1K | 3.52

Row | Variant | protein stability index
45 | Y1A | 3.18
46 | Y1W | 2.86
47 | Y1N | 3.35
48 | Y1F | 2.43
49 | Y1M | 2.76
50 | Y1D | 3.69
51 | T5L | 2.85
52 | T5V | 3.09
53 | T5F | 2.27
54 | T5A | 2.54
55 | T5Y | 2
56 | T5G | 2.82
57 | T5S | 3.03
58 | T5N | 2.57
59 | T5E | 3.54
60 | T5C | 2.17
61 | T5P | 2.82
62 | T5W | 1.83
63 | T5I | 2.17
64 | T5D | 3.06
65 | R6D | 3.69
66 | R6C | 1.89

Variants of: B2
Experiment: as above
Conditions: c terminus: a fixed tail appended

Row | Variant | protein stability index
67 | T12M | 2.69
68 | T12Y | 1.01
69 | T12F | 1.33
70 | T12H | 2.89
71 | T12I | 2.34
72 | T12E | 1.61
73 | T12K | 2.38
74 | T12L | 2.31
75 | T12R | 2.71
76 | T12A | 2
77 | S15N | 1.63
78 | S15P | 1.26
79 | S15C | 2.95
80 | S15L | 1.27
81 | S15A | 2.65
82 | S15W | 1.54
83 | S15M | 3.08
84 | S15K | 2.02
85 | S15G | 1.68
86 | D17C | 3.64
87 | D17P | 1.94
88 | D17V | 3.08
89 | D17Y | 1.5
90 | D17N | 1.97
91 | D17E | 1.39

Row | Variant | protein stability index
92 | D17K | 1.24
93 | D17R | 2.27
94 | D17L | 1.58
95 | D17T | 1.43
96 | D17A | 1.39
97 | D17S | 1.86
98 | D17I | 1.48
99 | Q3L | 1.59
100 | Q3S | 1.55
101 | Q3T | 1.89
102 | Q3N | 2.58
103 | Q3Y | 1.32
104 | Q3P | 1.63
105 | Q3R | 2.14
106 | Q3G | 2.03
107 | Q3H | 1.78
108 | Q3W | 1.41
109 | L19R | 2.86
110 | L19G | 2.56
111 | L19T | 2.27
112 | L19P | 1.73
113 | L19K | 1.68
114 | L19E | 3.44
115 | L19H | 2.63
116 | L19S | 1.77

Row | Variant | protein stability index
117 | K2H | 1.66
118 | K2I | 2.63
119 | K2N | 1.46
120 | K2F | 1.85
121 | K2D | 2.04
122 | K2P | 1.77
123 | K2Q | 2.69
124 | K2S | 2.15
125 | K2E | 3.03
126 | K2Y | 2.81
127 | K2C | 2.96
128 | K2W | 1.43
129 | K2G | 2.97
130 | E10I | 2.1
131 | E10W | 1.53
132 | E10F | 2.27
133 | E10L | 1.96
134 | E10Q | 1.83
135 | E10R | 2.2
136 | E10A | 1.14
137 | E10T | 3.55
138 | E10K | 2.34
139 | E10G | 1.05
140 | E10D | 3
141 | E10S | 1.18

Row | Variant | protein stability index
142 | Q5D | 1.99
143 | Q5F | 2.09
144 | Q5N | 2.1
145 | Q5M | 1.55
146 | Q5E | 2.66
147 | Q5G | 1.99
148 | Q5L | 1.82
149 | Q5Y | 2.37
150 | Q5R | 2.57
151 | Q5K | 2.18
152 | Q5C | 3.72
153 | Q5P | 1.68
154 | K13Q | 1.29
155 | K13N | 2.35
156 | K13H | 2.96
157 | K13D | 2.18
158 | K13V | 1.52
159 | K13A | 2.15
160 | D14C | 1.1
161 | D14Y | 2.35
162 | D14T | 1.8
163 | D14K | 2.66
164 | D14Q | 1.87
165 | D14S | 3.28
166 | D14F | 1.46

Row | Variant | protein stability index
167 | D14P | 1.83
168 | P18Y | 1.95
169 | P18D | 1.75
170 | P18S | 1.29
171 | P18N | 1.92
172 | P18M | 1.88
173 | P18V | 3.04
174 | P18H | 1.75
175 | P20F | 1.52
176 | P20N | 1.88
177 | P20K | 2.66
178 | P20Q | 2.45
179 | P20I | 2.48
180 | P20D | 1.79
181 | P20Y | 1.75
182 | P20A | 2.13
183 | P20R | 2
184 | P20W | 1.44
185 | P20H | 2.22
186 | P6G | 2.11
187 | P6A | 1.3
188 | P6F | 2.43
189 | P6E | 1.89
190 | P6W | 1.98
191 | P6L | 2.79

Row | Variant | protein stability index
192 | P6S | 2.4
193 | P6H | 2.53
194 | P6T | 3.31
195 | P6D | 2.48
196 | H16D | 2.05
197 | H16V | 1.69
198 | H16I | 1.98
199 | H16C | 3.68
200 | H16W | 1.37
201 | H16N | 2.85
202 | H16P | 2.26
203 | H16K | 1.93
204 | H16S | 2.56
205 | E1Q | 2
206 | E1A | 2.67
207 | E1H | 2.64
208 | E1M | 1.7
209 | E1G | 1.66
210 | E1R | 2.19
211 | E1F | 1.4
212 | E1T | 2.38
213 | E1C | 2.08
214 | E24Y | 3.09
215 | E24M | 3.16
216 | E24R | 3.34

Row | Variant | protein stability index
217 | E24I | 3.06
218 | E24A | 2.62
219 | E24L | 3.02
220 | E24D | 1.9
221 | E24K | 2.89
222 | E24F | 3.11
223 | E24P | 4.12
224 | E24C | 2.66
225 | E24H | 3.29
226 | E24S | 2.34
227 | E24N | 3.02
228 | K4M | 1.54
229 | K4Q | 1.92
230 | K4V | 1.21
231 | K4I | 3.8
232 | K4G | 1.89
233 | K4P | 1.56
234 | K4T | 1.92
235 | K4F | 1.99
236 | K4R | 2.07
237 | K4D | 1.72
238 | K4H | 2.66
239 | K4E | 1.59
240 | K4C | 2.63
241 | K4W | 1

Row | Variant | protein stability index
242 | K4Y | 3
243 | K4A | 1.72
244 | K4S | 1.85
245 | W8F | 1.88
246 | W8K | 2.46
247 | W8I | 2.06
248 | W8A | 2.09
249 | W8D | 3.2
250 | W8Y | 1.94
251 | W8M | 2
252 | W8T | 1.58
253 | W8N | 3.03
254 | W8C | 2.31
255 | W8R | 2.54
256 | W8G | 2.04
257 | W8V | 2.05
258 | W8H | 2.41
259 | W8E | 3.08
260 | R9Q | 1.34
261 | R9P | 1.84
262 | R9H | 1.04
263 | R9I | 1.89
264 | R9A | 1.79
265 | R9E | 3.15
266 | R9S | 1.39

Row | Variant | protein stability index
267 | R9W | 1.66
268 | R9D | 1.76
269 | R9C | 1.39
270 | R9K | 2.32
271 | R9L | 2.48
272 | R9T | 2.17
273 | R7F | 2.54
274 | R7D | 2.47
275 | R7H | 2.05
276 | R7A | 1.59
277 | R7T | 1.57
278 | R7S | 1.23
279 | R7L | 1.32
280 | R7I | 1.96
281 | R7W | 2.53
282 | R7C | 5.92
283 | R7M | 1.94
284 | R7K | 2.02
285 | R7G | 2.14
286 | R7Y | 1.47
287 | R7N | 3.14
288 | S21H | 3.27
289 | S21T | 2.62
290 | S21V | 2.68
291 | S21I | 2.56

Row | Variant | protein stability index
292 | S21E | 3.19
293 | S21M | 2.6
294 | S21D | 4.6
295 | S21L | 2
296 | S21G | 2.93
297 | S21K | 1.75
298 | S21N | 2.01
299 | S21F | 2.54
300 | S21Y | 3.67
301 | S21Q | 3.03
302 | A23H | 4.04
303 | A23E | 2.39
304 | A23Y | 4.24
305 | A23L | 4.81
306 | A23T | 2.08
307 | A23M | 3.36
308 | A23N | 4.99
309 | A23W | 2.76
310 | A23I | 2.61
311 | A23F | 3.56
312 | A23K | 4.51
313 | A23Q | 2.26
314 | G11F | 2.88
315 | G11I | 1.69
316 | G11S | 2.61

Row | Variant | protein stability index
317 | G11M | 2.78
318 | G11L | 2.31
319 | G11E | 1.15
320 | G11P | 1.77
321 | G11H | 3.13
322 | G11R | 1.46
323 | G11Y | 1.98
324 | W22Q | 5.57
325 | W22R | 5.4
326 | W22A | 5.8
327 | W22D | 5.82
328 | W22T | 5.07
329 | W22S | 4.78
330 | W22H | 5.32
331 | W22L | 3.24
332 | W22P | 5.49
333 | W22N | 5.48
334 | W22E | 5.99

Reference: the supplement of paper PMC10567573
